Laboratory results: the RNAGym collection of RNA variant scans (doi:10.1093/nar/gkz1192)

B1: CPEB3 Ribozyme (parent)
chain: UAACAGGGGGCCACAGCAGAAGCGUUCACGUCGCAGCCCCUGUCAGAUUCUGGUGAAUCUGCGAAUUCUGCUGUAUAUCUC

Variants of: B1
Assay: self-cleavage, relative activity (ratio to wild type); higher = more cleavage; in vitro, sequencing
In short: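 For each CPEB3 ribozyme variant, relative activity is its cleaved/total read fraction divided by the unmutated ribozyme's. Barcoded error-prone PCR libraries were transcribed by T7 RNA polymerase (5 hours, 37°C) and held in DNase I for 15 min before an EDTA stop, with cleavage occurring throughout. Template-switching reverse transcription and Illumina sequencing were used to read the RNAs. A 5-read minimum applied, and results are the mean of three batches.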

| Variant | self-cleavage |
| --- | --- |
| UAACAGGGGGCCUCAGCAGAAGCGUUCACGUCGCAGCCCCUGUCAGAUUCUGGUGAAUCUGCGAAUUCUGCUGUAUAUAUC | 1.28 |
| UAACAGGGGGCCUCAGCAGAAGCGUUCACGUCGCAGCCCCUGUCAGAUUCUGGUGAAUCUGCGAAUUCUGCUGUAUAUUUC | 1.31 |
| UAACAGGGGGCCUCAGCAGAAGCGUCCACGUCGCAGCCCCUGUCAGAUUCUGGUGAAUCUGCGAAUUCUGCUGUAUAUCUC | 0.64 |
| UAACAGGGGGCCUCAGCAGAAGCGUGCACGUCGCAGCCCCUGUCAGAUUCUGGUGAAUCUGCGAAUUCUGCUGUAUAUCUC | 0.4 |
| UAACAGGGGGCCUCAGCAGAAGCGUACACGUCGCAGCCCCUGUCAGAUUCUGGUGAAUCUGCGAAUUCUGCUGUAUAUCUC | 1.08 |
| UAACAGGGGGCCUCAGCAGAAGCGUUCACUUCGCAGCCCCUGUCAGAUUCUGGUGAAUCUGCGAAUUCUGCUGUAUAUCUC | 0.11 |
| UAACAGGGGGCCUCAGCAGAAGCGUUCACAUCGCAGCCCCUGUCAGAUUCUGGUGAAUCUGCGAAUUCUGCUGUAUAUCUC | 0.24 |
| UAACAGGGGGCCUCAGCAGAAGCGUUCACGUCGCAGCUCCUGUCAGAUUCUGGUGAAUCUGCGAAUUCUGCUGUAUAUCUC | 0.89 |
| UAACAGGGGGCCUCAGCAGAAGCGUUCACGUCGCAGCGCCUGUCAGAUUCUGGUGAAUCUGCGAAUUCUGCUGUAUAUCUC | 0.41 |
| UAACAGGGGGCCUCAGCAGAAGCGUUCACGUCGCAGCACCUGUCAGAUUCUGGUGAAUCUGCGAAUUCUGCUGUAUAUCUC | 0.12 |
| UAACAGGGGGCCUCAGCAGAACCGUUCACGUCGCAGCCCCUGUCAGAUUCUGGUGAAUCUGCGAAUUCUGCUGUAUAUCUC | 0.19 |
| UAACAGGGGGCCUCAGCAGAAUCGUUCACGUCGCAGCCCCUGUCAGAUUCUGGUGAAUCUGCGAAUUCUGCUGUAUAUCUC | 0.34 |
| UAACAGGGGGCCUCAGCAGAAGCGUUCACGUCGCAGCCCCUGUCAGAUUCUGGUGAAUCUGCGAAUUCUGAUGUAUAUCUC | 0.33 |
| UAACAGGGGGCCUCAGCAGAAGCGCUCACGUCGCAGCCCCUGUCAGAUUCUGGUGAAUCUGCGAAUUCUGCUGUAUAUCUC | 0.28 |
| UAACAGGGGGCCUCAGCAGAAGCGAUCACGUCGCAGCCCCUGUCAGAUUCUGGUGAAUCUGCGAAUUCUGCUGUAUAUCUC | 0.26 |
| UAACAGGGGGCCUCAGCAGAAGCGUUCACGUCGCAGCCCCUGUCAGAUUCUGGUGAAUCUGCGAAUUCUACUGUAUAUCUC | 0.48 |
| UAACAGGGGGCCUCAGCAGAAGCGUUCACGUCGCAGCCCCUGUCAGAUUCUGGUGAAUCUGCGAAUUCUCCUGUAUAUCUC | 0.21 |

| Variant | self-cleavage |
| --- | --- |
| UAACAGGGGGCCUCAGCAGAAGCGUUCACGCCGCAGCCCCUGUCAGAUUCUGGUGAAUCUGCGAAUUCUGCUGUAUAUCUC | 1.01 |
| UAACAGGGGGCCUCAGCAGAAGCGUUCACGACGCAGCCCCUGUCAGAUUCUGGUGAAUCUGCGAAUUCUGCUGUAUAUCUC | 0.61 |
| UAACAGGGGGCCUCAGCAGAAGCGUUCACGGCGCAGCCCCUGUCAGAUUCUGGUGAAUCUGCGAAUUCUGCUGUAUAUCUC | 0.66 |
| UAACAGGGGGCCUCAGCAGAAGCGUUCACGUCGCAGCCCCUGUCAGAUACUGGUGAAUCUGCGAAUUCUGCUGUAUAUCUC | 0.71 |
| UAACAGGGGGCCUCAGCAGAAGCGUUCACGUCGCAGCCCCUGUCAGAUCCUGGUGAAUCUGCGAAUUCUGCUGUAUAUCUC | 0.31 |
| UAACAGGGGGCCUCAGCAGAAGCGUUCACGUCGCAGCCCCUGUCAGAUUCUGGUGAAACUGCGAAUUCUGCUGUAUAUCUC | 0.44 |
| UAACAGGGGGCCUCAGCAGAAGCGUUCACGUCGCAGCCCCUGUCAGAUUUUGGUGAAUCUGCGAAUUCUGCUGUAUAUCUC | 0.89 |
| UAACAGGGGGCCUCAGCAGAAGCGUUCACGUCGCAGCCCCUGUCAGAUUAUGGUGAAUCUGCGAAUUCUGCUGUAUAUCUC | 0.98 |
| UAACAGGGGGCCUCAGCAGAAGCGUUCACGUCGCAGCCCCUGUCAGAUUCUGGUUAAUCUGCGAAUUCUGCUGUAUAUCUC | 0.83 |
| UAACAGGGGGCCUCAGCAGAAGCGUUCACGUCGCAACCCCUGUCAGAUUCUGGUGAAUCUGCGAAUUCUGCUGUAUAUCUC | 0.33 |
| UAACAGGGGGCCUCAGCAGAAGCGUUCACGUCGCAGCCCCUGCCAGAUUCUGGUGAAUCUGCGAAUUCUGCUGUAUAUCUC | 0.93 |
| UAACAGGGGGCCUCAGCAGAAGCGUUCACGUCGCAGCCCCUGGCAGAUUCUGGUGAAUCUGCGAAUUCUGCUGUAUAUCUC | 0.26 |
| UAACAGGGGGCCUCAGCAGAAGCGUUCACGUCGCAGCCCCUGACAGAUUCUGGUGAAUCUGCGAAUUCUGCUGUAUAUCUC | 1.09 |
| UAACAGGGGGCCUCAGCAGAAGCGUUCACGUCGCAGCCCCUGUCAGAUUCUGGUGAAUAUGCGAAUUCUGCUGUAUAUCUC | 0.58 |
| UAACAGGGGGCCUCAGCAGAAGCGUUCACGUCGCAGCCCCUGUAAGAUUCUGGUGAAUCUGCGAAUUCUGCUGUAUAUCUC | 0.29 |
| UAACAGGGGGCCUCAGCAGAAGCGUUCACGUCGCAGCCCCUGUUAGAUUCUGGUGAAUCUGCGAAUUCUGCUGUAUAUCUC | 0.23 |
| UAACAGGGGGCCUCAGCAGAAGCGUUCACGUCGCAGCCCCUGUCAGAUUCUGGUGAAUCUGUGAAUUCUGCUGUAUAUCUC | 0.22 |
